The values below come from patent publication US20170022268A1 (H LUNDBECK A S, published 2017).

Where no end group is shown, it is not given here. [ ]: non-standard residue; d: D form. pGlu = O=C1CC[C@@H](C(=O)O)N1

The target of test [1] is T1, pyroglutamated human Aβ3-11 with the addition of a C-terminal cysteine residue, pE-FRHDSGYE-C (human, not fully specified).
T1 construct: The range 3-11 counts on Aβ, not on APP; also called human AβpE3; human AβpE3-11-C
T1 peptide: [pGlu]FRHDSGYEC
The test is described as follows: SPR (BIAcore 3000), peptide immobilised on CM5 chip. As to the method:
(§1) Affinity measurements using SPR technology: Binding affinity of anti-Aβ antibodies was determined using BIAcore 3000 (Biacore, Upsula, Sweden). Human and murine pyroglutaminyl and unmodified Aβ peptides with a C-terminal Cystein were immobilized on a CM5 chip using the 2-(2-pyridinyldithio) ethaneamine hydrochloride (PDEA) coupling technology (GE healthcare).
For orientation: Surface plasmon resonance follows binding to a sensor surface in real time, without labels.

Test [2] concerns the target T2, pyroglutamated murine Aβ3-11 with the addition of a C-terminal cysteine residue, pE-FGHDSGFE-C (murine, not fully specified).
T2 construct: The range 3-11 counts on Aβ, not on APP; also called murine AβpE3; murine AβpE3-11-C
T2 peptide: [pGlu]FGHDSGFEC
The description is as above. On the procedure: as §1

B1: monoclonal antibody 1G11 (antibody, V domains shown)
VH: EVKLEESGGGLVQPGGSMKLSCTASGLTLSDAWMNWVRQSPEKGLEWVAEIRSKAYKHATYYAESVKGRFTISRDDSKSCIYLQMNTLRAEDTGIYYCTRHGSWGPGTLVTVSA
VL: DILMSQSPSSMSVSLGDRVSITCRASQGISSKMGWLQQKPGKSSKGLIYHGTKLEDGVPSRFSGSGSGAEYSLTISSLESEDFGDYYCVQYAQFPYTFGGGTKLEIK
notes: Mouse hybridoma monoclonal antibody directed against murine AβpE3
As for B1, in test [1], the binding result is listed as “no binding”.

B2: monoclonal antibody 5C9 (antibody, V domains shown)
VH: QIQLQQSGPELVKPGAAVKISCKASGYTFTDYYLNWVKQKPGQGLEWIGWIYPGSGNVKYNEKFKGKATLTADTSSNTAHMQLSSLTSEDTAVYFCTREGLIVYWGQGTLVTVSA
VL: DVVLTQTPFTLSVTIGQPASISCKSSQSLLHSNGESYLNWLFQRPGQSPKRLIYAVSKLDSGVPDRFTGSGSGTDFTLKISRVEAEDLGVYYCVQGTHFPFTFGGGTKLEIK
notes: also called LuAb1h
As for B2, the binding result in test [2] is recorded as “no binding”.

B3: monoclonal antibody 2E4 (antibody, V domains shown)
VH: EVKLEESGGGLVQPGGSMKLSCTASGITLNDAWMTWVRQSPEKGLEWVGEIRNKANNHATNYAESVKGRFSISRDDSKGIVYLQMNSLRAEDTGNYYCTRHSYWGPGTLVTVSA
VL: DILMTQSPSSMSVSLGDTVSITCHASQGIRNNIGWLQEKPGKSFKGLIYHGTKLEDGIPSRFSGSGSGADYSLTISSLESEDVADYYCVQYDQFPYTFGGGTKLEIK
notes: as for B1
Turning to B3, the binding result in test [1] is “no binding”.
